Source: the supplement of paper PMC12067230
± gives the uncertainty stated by the source.

Experiment: amyloid nucleation score relative to WT ADan (yeast Sup35 reporter selection) (log enrichment difference); higher = more amyloid nucleation
Description: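 Deep mutational scan of the ADan peptide fused to the Sup35 nucleation domain (SupN) in S. cerevisiae [psi-pin-], covering all single amino-acid substitutions and stop truncations (truncations = sequence up to the stop). After 24 h Cu2+ induction, cells were selected on -ADE-URA plates for 7 d at 30 °C. The nucleation score is log enrichment (output/input, deep sequencing) minus that of WT ADan, as the error-weighted mean of 3 biological replicates (DiMSum).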

Substance	amyloid nucleation score
EAS [N-4-*]	-2.54 ± 0.48
EASN [C-5-*]	-4.07 ± 0.81
EASNC [F-6-*]	-3.12 ± 0.32
EASNCF [A-7-*]	-4.37 ± 0.56
EASNCFA [I-8-*]	-3.92 ± 0.58
EASNCFAI [R-9-*]	-3.67 ± 0.55
EASNCFAIR [H-10-*]	-4.06 ± 0.6
EASNCFAIRH [F-11-*]	-3.45 ± 0.39
EASNCFAIRHF [E-12-*]	-3.42 ± 0.34
EASNCFAIRHFE [N-13-*]	-5.86 ± 0.85
EASNCFAIRHFEN [K-14-*]	-4.92 ± 0.57
EASNCFAIRHFENK [F-15-*]	-4.43 ± 0.56
EASNCFAIRHFENKF [A-16-*]	-4.34 ± 0.67
EASNCFAIRHFENKFA [V-17-*]	-5.63 ± 1.4
EASNCFAIRHFENKFAV [E-18-*]	-3.23 ± 0.49
EASNCFAIRHFENKFAVE [T-19-*]	-3.43 ± 0.55
EASNCFAIRHFENKFAVET [L-20-*]	-4.16 ± 0.68
